Results from US20090092602A1 (published 2009).

Legend:
[1] = biological target: T1, recombinant human tissue factor (human, UniProt P13726 33-251, limits assumed); test: SPR (BIAcore), recombinant human TF immobilized on CM5 chip, antibody 0.125-1 nM; apparent Ka
T1 construct: also called TF; human TF
Method: (§1) The affinity of humanized anti-TF antibody for TF was determined by surface plasmon resonance (BIAcore from Pharmacia Biosensor) with recombinant human tissue factor covalently immobilized on a CM5 sensor chip.

[2] = biological target: T2, lipidated recombinant human tissue factor (Innovin) (human, UniProt P13726 33-295, limits assumed); test: cell-based or functional assay
[3] = biological target: T2, lipidated recombinant human tissue …; test: cell-based or functional assay; remark: listed apart in the source
[4] = biological target: T1, recombinant human tissue factor; test: SPR (BIAcore), recombinant human TF immobilized on CM5 chip, antibody 0.125-1 nM; apparent Kd
Method: as §1

Row | Binder | Ka [1] [M⁻¹] | inhibition of TF function in PT assay at above 12.9 nM antibody [2] [%] | PT Time (in seconds) at 12.9 nM antibody (12.2 s at 0 nM) [3] [s] | PT Time (in seconds) at 25.8 nM antibody (12.2 s at 0 nM) [3] [s] | PT Time (in seconds) at 51.6 nM antibody (12.2 s at 0 nM) [3] [s] | Kd [4] [nM]
1 | cH36 chimeric anti-tissue factor antibody (antibody, human IgG4, V domains shown, Mouse-human chimera; also called Sunol-cH36; chimeric H36) VH: EIQLQQSGPELVKPGASVQVSCKTSGYSFTDYNVYWVRQSHGKSLEWIGYIDPYNGITIYDQNFKGKATLTVDKSSTTAFMHLNSLTSDDSAVYFCARDVTTALDFWGQGTTLTVSS VL: DIQMTQSPASQSASLGESVTITCLASQTIDTWLAWYQQKPGKSPQLLIYAATNLADGVPSRFSGSGSGTKFSFKISSLQAEDFVNYYCQQVYSSPFTFGAGTKLELK | 7.94e+09 | ~95 | 19.8 | 40 | 101 | 0.126
2 | hOAT (humanized IgG One Anti-Tissue Factor antibody) (antibody) heavy: not shown light: DIQMTQSPASLSASVGDRVTITCLASQTIDTWLAWYLQKPGKSPQLLIYAATNLADGVPSRFSGSGSGTDFSFTISSLQPEDFATYYCQQVYSSPFTFGQGTKLEIKRTVAAPSVFIFPPSDEQLKSGTASVVCLLNNFYPREAKVQWKVDNALQSGNSQESVTEQDSKDSTYSLSSTLTLSKADYEKHKVYACEVTHQGLSSPVTKSFNRGEC |  | ~95 | 18.9 | 33.7 | 82.1 | 
3 | hFAT (humanized IgG Four Anti-Tissue Factor antibody) (antibody, also called humanized cH36-IgG4; HC08 + LC09 IgG4 kappa) heavy: not shown light: DIQMTQSPASLSASVGDRVTITCLASQTIDTWLAWYLQKPGKSPQLLIYAATNLADGVPSRFSGSGSGTDFSFTISSLQPEDFATYYCQQVYSSPFTFGQGTKLEIKRTVAAPSVFIFPPSDEQLKSGTASVVCLLNNFYPREAKVQWKVDNALQSGNSQESVTEQDSKDSTYSLSSTLTLSKADYEKHKVYACEVTHQGLSSPVTKSFNRGEC | 2.99e+09 | ~95 | 20.5 | 41.7 | 94.8 | 0.335
4 | H36.D2.B7 murine anti-tissue factor monoclonal antibody (antibody, mouse IgG2a, V domains shown) VH: EIQLQQSGPELVKPGASVQVSCKTSGYSFTDYNVYWVRQSHGKSLEWIGYIDPYNGITIYDQNFKGKATLTVDKSSTTAFMHLNSLTSDDSAVYFCARDVTTALDFWGQGTTLTVSS VL: DIQMTQSPASQSASLGESVTITCLASQTIDTWLAWYQQKPGKSPQLLIYAATNLADGVPSRFSGSGSGTKFSFKISSLQAEDFVNYYCQQVYSSPFTFGAGTKLELK | 1.56e+10 |  |  |  |  | 0.064
